Data published in patent US20230265151A1, “GIP/GLP1 CO-AGONIST COMPOUNDS” (priority 2020, published 2023).
Where a chain is given by its changes, count along the chain named.

B1: Y-Aib-EGT-αMeF(2F)-TSD-4Pal-GI-αMeL-LD-Orn-K((2-[2-(2-Amino-ethoxy)-ethoxy]-acetyl)2-(γ-Glu)-CO-(CH2)12-CO2H)AQ-Aib-EFI-(D-Glu)-αMeY-LIEGGK((2-[2-(2-Amino-ethox … (peptide)
peptide: YXEGTXTSDXGIXLDXKAQXEFIXXLIEGGKSSGAPPPS
modifications: Aib2, αMeF(2F)6, 4Pal10, αMeL13, Orn16, Aib20, D-Glu24, αMeY25; acylated K17, K31 (groups as in name); C-terminal amide
B2: Y-Aib-EGT-αMeF(2F)-TSDY-Dap-I-αMeL-LD-Orn-K((2-[2-(2-Amino-ethoxy)-ethoxy]-acetyl)2-(γ-Glu)-CO-(CH2)12-CO2H)AQ-Aib-EFI-(D-Glu)-αMeY-LIEGGK((2-[2-(2-Amino-ethoxy … (peptide)
peptide: B1 peptide with X10Y, G11X
modifications: Aib2, αMeF(2F)6, Dap11, αMeL13, Orn16, Aib20, D-Glu24, αMeY25; acylated K17, K31 (groups as in name); C-terminal amide
B3: Y-Aib-EGT-αMeF(2F)-TSD-4Pal-Dap-I-αMeL-LD-Orn-K((2-[2-(2-Amino-ethoxy)-ethoxy]-acetyl)2-(γ-Glu)-CO-(CH2)12-CO2H)AQ-Aib-EFI-(D-Glu)-αMeY-LIEGGK((2-[2-(2-Amino-et … (peptide)
peptide: B1 peptide with G11X
modifications: Aib2, αMeF(2F)6, 4Pal10, Dap11, αMeL13, Orn16, Aib20, D-Glu24, αMeY25; acylated K17, K31 (groups as in name); C-terminal amide
B4: Y-Aib-EGT-αMeF(2F)-TSD-4Pal-SI-αMeL-LD-Orn-K((2-[2-(2-Amino-ethoxy)-ethoxy]-acetyl)2-(γ-Glu)-CO-(CH2)12-CO2H)AQ-Aib-E-(2FPhe)-I-(D-Glu)-αMeY-LIEGGK((2-[2-(2-Ami … (peptide)
peptide: B1 peptide with G11S, F22X
modifications: Aib2, αMeF(2F)6, 4Pal10, αMeL13, Orn16, Aib20, 2FPhe22, D-Glu24, αMeY25; acylated K17, K31 (groups as in name); C-terminal amide
B5: Y-Aib-EGT-αMeF(2F)-TSD-Ac5c-SI-αMeL-LD-Orn-K((2-[2-(2-Amino-ethoxy)-ethoxy]-acetyl)2-(γ-Glu)-CO-(CH2)12-CO2H)AQ-Aib-E-αMeF-I-(D-Glu)-αMeY-LIEGGK((2-[2-(2-Amino- … (peptide)
peptide: B1 peptide with G11S, F22X
modifications: Aib2, αMeF(2F)6, Ac5c10, αMeL13, Orn16, Aib20, αMeF22, D-Glu24, αMeY25; acylated K17, K31 (groups as in name); C-terminal amide
B6: Y-Aib-EGT-αMeF(2F)-TSD-4Pal-SI-αMeL-LD-Orn-K((2-[2-(2-Amino-ethoxy)-ethoxy]-acetyl)2-(γ-Glu)-CO-(CH2)12-CO2H)AQ-Aib-E-αMeF(2F)-I-(D-Glu)-αMeY-LIEGGK((2-[2-(2-Am … (peptide)
peptide: B1 peptide with G11S, F22X
modifications: Aib2, αMeF(2F)6, 4Pal10, αMeL13, Orn16, Aib20, αMeF(2F)22, D-Glu24, αMeY25; acylated K17, K31 (groups as in name); C-terminal amide
B7: Y-Aib-EGT-αMeF(2F)-TSD-4Pal-SI-αMeL-LD-Orn-K((2-[2-(2-Amino-ethoxy)-ethoxy]-acetyl)2-(γ-Glu)-CO-(CH2)12-CO2H)AQ-Aib-GFI-(D-Glu)-αMeY-LIEGGK((2-[2-(2-Amino-ethox … (peptide)
peptide: B1 peptide with G11S, E21G
modifications: Aib2, αMeF(2F)6, 4Pal10, αMeL13, Orn16, Aib20, D-Glu24, αMeY25; acylated K17, K31 (groups as in name); C-terminal amide
B8: Y-Aib-EGT-αMeF(2F)-TSD-Ac4c-SI-αMeL-LD-Orn-K((2-[2-(2-Amino-ethoxy)-ethoxy]-acetyl)2-(γ-Glu)-CO-(CH2)12-CO2H)AQ-Aib-EFI-(D-Glu)-αMeY-LIEGGK((2-[2-(2-Amino-ethox … (peptide)
peptide: B1 peptide with G11S
modifications: Aib2, αMeF(2F)6, Ac4c10, αMeL13, Orn16, Aib20, D-Glu24, αMeY25; acylated K17, K31 (groups as in name); C-terminal amide
B9: Y-Aib-EGT-αMeF(2F)-TSDVSI-αMeL-LD-Orn-K((2-[2-(2-Amino-ethoxy)-ethoxy]-acetyl)2-(γ-Glu)-CO-(CH2)12-CO2H)AQ-Aib-EFI-(D-Glu)-αMeY-LIEGGK((2-[2-(2-Amino-ethoxy)-et … (peptide)
peptide: B1 peptide with X10V, G11S
modifications: Aib2, αMeF(2F)6, αMeL13, Orn16, Aib20, D-Glu24, αMeY25; acylated K17, K31 (groups as in name); C-terminal amide
B10: Y-Aib-EGT-αMeF(2F)-TSD-4Pal-SI-αMeL-LD-Orn-K((2-[2-(2-Amino-ethoxy)-ethoxy]-acetyl)2-(γ-Glu)-CO-(CH2)12-CO2H)AQ-Aib-EFI-(D-Glu)-αMeY-LI-Orn-GGK((2-[2-(2-Amino-e … (peptide)
peptide: B1 peptide with G11S, E28X
modifications: Aib2, αMeF(2F)6, 4Pal10, αMeL13, Orn16, Aib20, D-Glu24, αMeY25, Orn28; acylated K17, K31 (groups as in name); C-terminal amide
B11: Y-Aib-EGT-αMeF(2F)-TSD-Ac6c-SI-αMeL-LD-Orn-K((2-[2-(2-Amino-ethoxy)-ethoxy]-acetyl)2-(γ-Glu)-CO-(CH2)12-CO2H)AQ-Aib-EFI-(D-Glu)-αMeY-LIEGGK((2-[2-(2-Amino-ethox … (peptide)
peptide: B1 peptide with G11S
modifications: Aib2, αMeF(2F)6, Ac6c10, αMeL13, Orn16, Aib20, D-Glu24, αMeY25; acylated K17, K31 (groups as in name); C-terminal amide
B12: Y-Aib-EGT-αMeF(2F)-TSD-ChA-SI-αMeL-LD-Orn-K((2-[2-(2-Amino-ethoxy)-ethoxy]-acetyl)2-(γ-Glu)-CO-(CH2)12-CO2H)AQ-Aib-EFI-(D-Glu)-αMeY-LIEGGK((2-[2-(2-Amino-ethoxy … (peptide)
peptide: B1 peptide with G11S
modifications: Aib2, αMeF(2F)6, ChA10, αMeL13, Orn16, Aib20, D-Glu24, αMeY25; acylated K17, K31 (groups as in name); C-terminal amide
B13: Y-Aib-EGT-αMeF(2F)-TSDVSI-αMeL-LD-Orn-K((2-[2-(2-Amino-ethoxy)-ethoxy]-acetyl)2-(γ-Glu)-CO-(CH2)12-CO2H)AQ-Aib-E-αMeF-I-(D-Glu)-αMeY-LIEGGK((2-[2-(2-Amino-ethox … (peptide)
peptide: B1 peptide with X10V, G11S, F22X
modifications: Aib2, αMeF(2F)6, αMeL13, Orn16, Aib20, αMeF22, D-Glu24, αMeY25; acylated K17, K31 (groups as in name); C-terminal amide
B14: Y-Aib-EGT-αMeF(2F)-TSD-Bip-SI-αMeL-LD-Orn-K((2-[2-(2-Amino-ethoxy)-ethoxy]-acetyl)2-(γ-Glu)-CO-(CH2)12-CO2H)AQ-Aib-EFI-(D-Glu)-αMeY-LIEGGK((2-[2-(2-Amino-ethoxy … (peptide)
peptide: B1 peptide with G11S
modifications: Aib2, αMeF(2F)6, Bip10, αMeL13, Orn16, Aib20, D-Glu24, αMeY25; acylated K17, K31 (groups as in name); C-terminal amide
B15: Y-Aib-EGT-αMeF(2F)-TSD-2Nal-SI-αMeL-LD-Orn-K((2-[2-(2-Amino-ethoxy)-ethoxy]-acetyl)2-(γ-Glu)-CO-(CH2)12-CO2H)AQ-Aib-EFI-(D-Glu)-αMeY-LIEGGK((2-[2-(2-Amino-ethox … (peptide)
peptide: B1 peptide with G11S
modifications: Aib2, αMeF(2F)6, 2Nal10, αMeL13, Orn16, Aib20, D-Glu24, αMeY25; acylated K17, K31 (groups as in name); C-terminal amide
B16: Y-Aib-EGT-αMeF(2F)-TSD-αMeF(2F)-SI-αMeL-LD-Orn-K((2-[2-(2-Amino-ethoxy)-ethoxy]-acetyl)2-(γ-Glu)-CO-(CH2)12-CO2H)AQ-Aib-EFI-(D-Glu)-αMeY-LIEGGK((2-[2-(2-Amino-e … (peptide)
peptide: B1 peptide with G11S
modifications: Aib2, αMeF(2F)6, αMeF(2F)10, αMeL13, Orn16, Aib20, D-Glu24, αMeY25; acylated K17, K31 (groups as in name); C-terminal amide
B17: Y-Aib-EGT-αMeF(2F)-TSD-4Pal-SI-αMeL-LD-Orn-K((2-[2-(2-Amino-ethoxy)-ethoxy]-acetyl)2-(γ-Glu)-CO-(CH2)12-CO2H)AQ-Aib-EFI-(D-Glu)-αMeY-LIEGGK((2-[2-(2-Amino-ethox … (peptide)
peptide: B1 peptide with G11S, S39X
modifications: Aib2, αMeF(2F)6, 4Pal10, αMeL13, Orn16, Aib20, D-Glu24, αMeY25, Orn39; acylated K17, K31 (groups as in name); C-terminal amide
B18: Y-Aib-EGT-αMeF(2F)-TSD-4Pal-SI-αMeL-LD-Orn-K((2-[2-(2-Amino-ethoxy)-ethoxy]-acetyl)2-(γ-Glu)-CO-(CH2)12-CO2H)GQ-Aib-EFI-(D-Glu)-αMeY-LIEGGK((2-[2-(2-Amino-ethox … (peptide)
peptide: B1 peptide with G11S, A18G
modifications: Aib2, αMeF(2F)6, 4Pal10, αMeL13, Orn16, Aib20, D-Glu24, αMeY25; acylated K17, K31 (groups as in name); C-terminal amide

Biological target: human GLP-1 receptor (human, UniProt P43220 24-463)
Assay: cell-based or functional assay

Binder | cAMP EC50 (1.0% HSA) [nM] | cAMP Emax (1.0% HSA) [%]
B1 | 402 | 123
B2 | 26.6 | –
B3 | 70 | 100
B4 | 47.6 | 98
B5 | 145 | 113
B6 | 209 | –
B7 | 35.5 | –
B8 | 8.84 | 84
B9 | 23.4 | 96.6
B10 | 17.3 | 112
B11 | 20.3 | –
B12 | 58.1 | –
B13 | 76.8 | 108
B14 | 70.5 | –
B15 | 39.3 | –
B16 | 80 | –
B17 | 70.5 | 103
B18 | 367 | –

Biological target: T1, human GIP receptor (human, UniProt P48546 22-466)
T1 sequence (looked up): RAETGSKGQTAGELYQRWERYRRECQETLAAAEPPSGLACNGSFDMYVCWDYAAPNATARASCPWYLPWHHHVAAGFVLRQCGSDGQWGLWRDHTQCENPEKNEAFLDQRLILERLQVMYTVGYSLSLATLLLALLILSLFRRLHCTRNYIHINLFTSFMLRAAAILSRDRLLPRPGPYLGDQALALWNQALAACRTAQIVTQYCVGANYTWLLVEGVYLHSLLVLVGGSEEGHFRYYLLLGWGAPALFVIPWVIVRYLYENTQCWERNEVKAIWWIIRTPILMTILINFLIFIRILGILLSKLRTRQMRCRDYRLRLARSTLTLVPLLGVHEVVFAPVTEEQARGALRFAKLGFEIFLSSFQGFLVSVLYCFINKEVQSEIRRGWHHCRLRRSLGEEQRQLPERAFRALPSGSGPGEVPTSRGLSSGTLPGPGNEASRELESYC
Assay: cell-based or functional assay

Binder | cAMP EC50 (1.0% HSA) [nM] | cAMP Emax (1.0% HSA) [%]
B1 | 2.61 | 98.3
B2 | 2.7 | 83.7
B3 | 2.45 | 77.1
B4 | 0.771 | –
B5 | 2.81 | –
B6 | 0.591 | 80.3
B7 | 0.515 | 94.2
B8 | 4.68 | –
B9 | 3.81 | 104
B10 | 0.306 | 87.5
B11 | 0.865 | –
B12 | 4.97 | –
B13 | 2.64 | 102
B14 | 6.62 | –
B15 | 4.55 | –
B16 | 4.84 | –
B17 | 1.34 | 93
B18 | 2.36 | 96.9

Biological target: human glucagon receptor (human, UniProt P47871 26-477)
Assay: cell-based or functional assay

Binder | cAMP EC50 (1.0% HSA) [µM]
B1 | > 9.95
B2 | > 9.95
B3 | > 9.95
B4 | > 9.95
B5 | > 9.95
B6 | > 9.95
B7 | > 9.95
B8 | > 9.95
B9 | > 9.95
B10 | > 9.95
B11 | > 9.95
B12 | > 9.95
B13 | > 9.95
B14 | > 9.95
B15 | > 9.95
B16 | > 9.95
B17 | > 9.95
B18 | > 9.95
